T1: human B7.2 ectodomain fused to human Fc (human, UniProt P42081-1 26-238)
T1 construct: also called hB7.2-Fc; hB7.2-hFc; not shown: Fc (human), C-terminal, kept
T1 sequence (looked up): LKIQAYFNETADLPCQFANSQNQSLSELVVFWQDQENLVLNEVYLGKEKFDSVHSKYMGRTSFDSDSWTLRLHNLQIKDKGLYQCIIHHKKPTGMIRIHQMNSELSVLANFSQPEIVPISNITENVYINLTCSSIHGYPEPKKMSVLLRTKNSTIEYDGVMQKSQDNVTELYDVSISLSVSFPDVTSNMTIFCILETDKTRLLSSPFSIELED

B1: VACV M2 (vaccinia virus M2), recombinant, His-tagged (natural protein)
chain: VEYKNTICPPRQDYRYWYFAAELTIGVNYDINSTIIGECHMSESYIDRNANIVLTGYGLEINMTIMDTDQRFVAAAEGVGKDNKLSVLLFTTQRLDKVHHNISVTITCMEMNCGTTKYDSDLPESIHKSSSCDITINGSCVTCVNLETDPTKINPHYLHPKDKYLYHNSEYGMRGSYGVTFIDELNQCLLDIKELSYDICYRE

Experiments:
[1] = biological target: B1; test: far-Western, overlay or dot blot; conditions: both partners purified
[2] = biological target: T1, human B7.2 ectodomain fused to human Fc; test: far-Western, overlay or dot blot; conditions: both partners purified
[3] = biological target: the molecule itself; test: non-reducing against reducing SDS-PAGE

| Binder | binding result [1] | binding result [2] | binding result [3] |
| --- | --- | --- | --- |
| human B7.1 ectodomain fused to human Fc (Fc fusion, UniProt P33681-1 35-234, looked up, also called hB7.1-Fc; hB7.1-hFc; not shown: Fc (human), C-terminal, kept) VIHVTKEVKEVATLSCGHNVSVEELAQTRIYWQKEKKMVLTMMSGDMNIWPEYKNRTIFDITNNLSIVILALRPSDEGTYECVVLKYEKDAFKREHLAEVTLSVKADFPTPSISDFEIPTSNIRRIICSTSGGFPEPHLSWLENGEELNAINTTVSQDPETELYAVSSKLDFNMTTNHSFMCLIKYGHLRVNQTFNWNTT | binds |  |  |
| B1 |  | binds | binds |

Source: PMC10457294 (Nature Communications, 2023)
